The text below walks through data of article PMC6504076, “An in vivo half-life extended prolactin receptor antagonist can prevent STAT5 phosphorylation” (PLoS ONE, 2019).

The term Kd denotes the equilibrium constant for the complex coming apart. What is called koff is the rate constant with which the complex falls apart. Lower therefore signals slow dissociation. As usually defined, the kon is the rate constant with which the complex forms.

Assay [1] deals with prolactin receptor (PrlR), extracellular domain (UniProt P16471). The assay is described as follows: SPR; Biacore 3000; extracellular domain of PrlR immobilized; ABD-PrlRA dilution series with HSA added to 400 nM, incubated 4 h at 4°C; PBS with 0.05% Tween-20 and HSA as running buffer; 25°C, 40 μl/min; 1:1 Langmuir model (called an approximation). A general note: In SPR one partner is held on a chip, and binding of the other changes the refractive index at the surface.

Assay [2] has the same target. The assay is described as above. This is another data set of the same source.
The target in assay [3] is mouse serum albumin (mouse) (UniProt P07724). The assay is described as follows: SPR; Biacore 3000; mouse serum albumin immobilized on CM5 chip (approx. 800 RU); dilution series of ABD-PrlRA injected; 25°C, 40 μl/min; 1:1 Langmuir model.
mouse serum albumin (mouse), sequence (P07724 25-608): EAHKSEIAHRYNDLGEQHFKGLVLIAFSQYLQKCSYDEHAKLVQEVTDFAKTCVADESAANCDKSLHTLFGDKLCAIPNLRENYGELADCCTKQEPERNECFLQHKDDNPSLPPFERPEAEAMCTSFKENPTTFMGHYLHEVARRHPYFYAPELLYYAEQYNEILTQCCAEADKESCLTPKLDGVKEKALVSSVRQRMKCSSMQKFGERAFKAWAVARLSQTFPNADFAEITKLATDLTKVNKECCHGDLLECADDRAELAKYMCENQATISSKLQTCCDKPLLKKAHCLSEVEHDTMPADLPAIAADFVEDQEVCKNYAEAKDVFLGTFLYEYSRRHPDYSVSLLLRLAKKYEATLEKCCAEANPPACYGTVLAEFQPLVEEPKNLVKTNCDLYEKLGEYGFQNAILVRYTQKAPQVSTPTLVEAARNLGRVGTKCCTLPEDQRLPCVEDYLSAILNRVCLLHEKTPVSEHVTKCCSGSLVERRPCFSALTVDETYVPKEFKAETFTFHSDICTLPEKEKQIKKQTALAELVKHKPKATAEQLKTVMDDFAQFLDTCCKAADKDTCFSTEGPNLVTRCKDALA
Assay [4] addresses prolactin receptor (PrlR), extracellular domain (UniProt P16471). The assay can be described thus: SPR; Biacore 3000; PrlR immobilized on CM5 chip (approx. 300 RU); dilution series of analyte injected; 25°C, 40 μl/min; PBS with 0.05% Tween-20; 1:1 Langmuir model.
For assay [5], the target named is T1, prolactin receptor (PrlR), extracellular domain (UniProt P16471 25-234).
T1 construct: prolactin receptor, extracellular domain, from Sino Biological; No catalogue number printed; source: bought: Sino Biological
T1 sequence (looked up): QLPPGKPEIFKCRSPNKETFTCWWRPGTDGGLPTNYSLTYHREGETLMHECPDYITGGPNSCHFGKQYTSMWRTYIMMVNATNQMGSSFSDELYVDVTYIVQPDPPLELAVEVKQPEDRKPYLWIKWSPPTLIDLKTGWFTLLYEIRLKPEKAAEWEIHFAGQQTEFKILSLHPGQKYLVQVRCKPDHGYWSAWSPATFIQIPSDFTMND
The description is as above. To be noted: both partners purified.

Assay [6] deals with T1, prolactin receptor (PrlR), …. The description is as above. The settings on record: both partners purified. The source holds these as a separate data set.

Molecule “complex of HSA and ABD-PrlRA (from UniProt P02768 25-609; P01236 29-227)” came in with a Kd in assay [1] of 23 nM. In assay [2], this molecule returned a Kd of 21 nM, a koff of 0.00078 s⁻¹ and a kon of 39000 M⁻¹ s⁻¹.
Consider “ABD-PrlRA (fusion of an N-terminal albumin binding domain ABD035 and the prolactin receptor antagonist PrlRA) (from UniProt P01236 29-227)”, for which, in assay [3], the Kd turned out to be 0.38 nM, the koff is 0.0012 s⁻¹ and the association rate constant (kon) turned out to be 3.1e+06 M⁻¹ s⁻¹. In assay [4], this molecule registered a Kd of 2.3 nM, a koff of 0.00074 s⁻¹ and a kon of 330000 M⁻¹ s⁻¹.

B1: prolactin (Prl), produced in house (ligand, human)
chain: MGSSLPICPGGAARCQVTLRDLFDRAVVLSHYIHNLSSEMFSEFDKRYTHGRGFITKAINSCHTSSLATPEDKEQAQQMNQKDFLSLIVSILRSWNEPLYHLVTEVRGMQEAPEAILSKAVEIEEQTKRLLEGMELIVSQVHPETKENEIYPVWSGLPSLQMADEESRLSAYYNLLHCLRRDSHKIDNYLKLLKCRIIHNNNC
notes: prolactin, human; the Prl gene itself is not separately called human; also called in house produced Prl
In the case of B1, in assay [5], binding was characterised by a dissociation constant (Kd) of 8.4 ± 0.2 nM, the koff was found to be 0.0012 s⁻¹ and the kon is 140000 M⁻¹ s⁻¹.

B2: Prolactin (Prl*), commercially obtained (ligand, UniProt P01236 29-227, looked up)
chain: LPICPGGAARCQVTLRDLFDRAVVLSHYIHNLSSEMFSEFDKRYTHGRGFITKAINSCHTSSLATPEDKEQAQQMNQKDFLSLIVSILRSWNEPLYHLVTEVRGMQEAPEAILSKAVEIEEQTKRLLEGMELIVSQVHPETKENEIYPVWSGLPSLQMADEESRLSAYYNLLHCLRRDSHKIDNYLKLLKCRIIHNNNC
notes: prolactin from Sino Biological; No catalogue number printed; source: bought: Sino Biological
Take B2: the affinity in assay [6], expressed as Kd, was 23 ± 4 nM.

B3: prolactin receptor antagonist PrlRA (ligand, human)
chain: MGSSRSQVTLRDLFDRAVVLSHYIHNLASEMFSEFDKRYTHGRGFITKAINSCHTSSLATPEDKEQALQMNQKDFLSLIVSILRSWNEPLYHLVTEVRGMQEAPEAILSKAVEIEEQTKRLLERMELIVSQVHPETKENEIYPVWSGLPSLQMADEESRLSAYYNLLHCLRRDSHKIDNYLKLLRCRIIHNNNC
As for B3, in assay [5], binding was put at a Kd of 3.4 ± 0.5 nM, the koff is 0.00088 s⁻¹ and the on-rate (kon) turned out to be 260000 M⁻¹ s⁻¹.
